Tests used:
[1] = tested on: VZV antigen; assay: VZV antigen-specific IgG titer (ELISA) after immunization; format: in vivo, C57BL/6 mice; conditions: Experimental Example 10, FIG. 12; gE alone versus gE together with gI or IE63 antigen
Method: (§1) Since humans have a history of chickenpox infection, in order to mimic chickenpox infection in mice, live attenuated vaccine (LAV, 3000 pfu) was subcutaneously injected once to female C57BL/6 mice to perform primary immunization (LAV priming). After 28 days from the LAV priming (Day 0), various VZV vaccine compositions with or without VZV protein immunogen or adjuvant were administered by intramuscular injection to perform secondary immunization. […]
After performing the primary immunization and the secondary immunization, ELISA (enzyme-linked immunosorbant assay) was carried out for measuring VZV antigen-specific IgG titer. […] The HRP reaction was stopped by adding ELISA stop solution and optical density (OD) was measured using a spectrometer at a wavelength of 450 nm.
Various VZV antigen-specific IgG titers depending on the use of SLA-SE were determined in the same manner as in Experimental Example 2-1 except that any one of gE, gI, IE63, gB, gC, and gL was used as an antigen in the secondary immunization and SLA-SE was used as an adjuvant, and the results are summarized in FIGS. 8 and 9. […]

[2] = tested on: entire VZV (VZV lysate); assay: IFN-γ ELISPOT assay, leukocyte stimulation with VZV lysate; format: in vivo, C57BL/6 mice; conditions: Experimental Example 10, FIG. 12; gE alone versus gE together with gI or IE63 antigen
Method: as §1
After performing the primary immunization and the secondary immunization, mouse IFN-γ ELISPOT (enzyme-linked immunospot) assay was carried out to confirm VZV antigen-specific cell-mediated immune response (CMI). […] The number of the resulting spots were counted with a device.
The gE protein, gE OLP, or VZV lysate-specific cell-mediated immune responses were measured according to the method of Experimental Example 2-2 (IFN-γ ELISPOT assay), and the experimental results are summarized in FIGS. 3, 4, and 5. […]
The gE protein, gE OLP, or VZV lysate-specific cell-mediated immune responses were measured according to the method of Experimental Example 2-2 (IFN-γ ELISPOT assay), and the experimental results are summarized in FIGS. 15, 16, and 17.

B1: gE antigen: VZV glycoprotein E of SEQ ID NO: 1 (protein)
chain: MGTVNKPVVGVLMGFGIITGTLRITNPVRASVLRYDDFHTDEDKLDTNSVYEPYYHSDHAESSWVNRGESSRKAYDHNSPYIWPRNDYDGFLENAHEHHGVYNQGRGIDSGERLMQPTQMSAQEDLGDDTGIHVIPTLNGDDRHKIVNVDQRQYGDVFKGDLNPKPQGQRLIEVSVEENHPFTLRAPIQRIYGVRYTETWSFLPSLTCTGDAAPAIQHICLKHTTCFQDVVVDVDCAENTKEDQLAEISYRFQGKKEADQPWIVVNTSTLFDELELDPPEIEPGVLKVLRTEKQYLGVYIWNMRGSDGTSTYATFLVTWKGDEKTRNPTPAVTPQPRGAEFHMWNYHSHVFSVGDTFSLAMHLQYKIHEAPFDLLLEWLYVPIDPTCQPMRLYSTCLYHPNAPQCLSHMNSGCTFTSPHLAQRVASTVYQNCEHADNYTAYCLGISHMEPSFGLILHDGGTTLKFVDTPESLSGLYVFVVYFNGHVEAVAYTVVSTVDHFVNAIEERGFPPTAGQPPATTKPKEITPVNPGTSPLLR
modifications: Human herpesvirus 3
In the case of B1, the VZV-specific antibody response [1] is reported as “not significantly different” and the “VZV-specific T cell response” value [2] is reported as “not significantly different”.
